Literature values in article PMC2783455.

Molecular target: Calmodulin (UniProt P0DP23)

## CyaA (from UniProt J7QLC0)
  Kd: 0.2 nM
